Data published in patent US20090158456.

What was measured:
[1] = system: recombinant GST-CcHCT fusion protein (pGTPc103a_HCT)
[2] = system: recombinant GST-CcHQT fusion protein (pGTPc103a_HQT)

AcTEV protease
SDS PAGE gel electrophoresis and coomassie staining after AcTEV digestion [1]: generate a smaller polypeptide with the expected molecular weight of the full length proteins from each of the GST-tagged "precursor" proteins | SDS PAGE gel electrophoresis and coomassie staining after AcTEV digestion [2]: generate a smaller polypeptide with the expected molecular weight of the full length proteins from each of the GST-tagged "precursor" proteins
